{"source": "patent US20240181007A1", "about": "“COMPOSITIONS AND METHODS FOR TREATING PULMONARY HYPERTENSION” (Acceleron Pharma Inc., priority 2021, published 2024)", "key": {"[1]": {"biological_target": "T1, BMP9 (UniProt Q9UK05 320-429)", "T1 sequence (looked up)": "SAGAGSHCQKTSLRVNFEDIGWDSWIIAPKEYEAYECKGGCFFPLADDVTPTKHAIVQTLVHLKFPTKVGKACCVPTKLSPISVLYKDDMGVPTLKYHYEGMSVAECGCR", "experiment": "cell-based or functional assay"}, "[2]": {"biological_target": "T2, GDF11 (UniProt O95390 299-407)", "T2 construct": "also called Growth and differentiation factor-11; BMP11", "T2 sequence (looked up)": "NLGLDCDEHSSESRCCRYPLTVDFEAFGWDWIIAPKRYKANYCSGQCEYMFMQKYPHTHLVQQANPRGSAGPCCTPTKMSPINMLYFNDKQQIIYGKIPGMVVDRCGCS", "experiment": "cell-based or functional assay"}, "[3]": {"biological_target": "T3, activin A (UniProt P08476 311-426)", "T3 construct": "Soluble ligand injected in SPR or added in the reporter assay", "T3 sequence (looked up)": "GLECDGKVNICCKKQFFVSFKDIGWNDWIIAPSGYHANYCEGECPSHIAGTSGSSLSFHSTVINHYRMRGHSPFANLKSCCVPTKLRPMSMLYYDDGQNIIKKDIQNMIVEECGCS", "experiment": "cell-based or functional assay"}, "[4]": {"biological_target": "T4, BMP9 (Homo sapiens, UniProt Q9UK05)", "T4 sequence (Q9UK05 320-429)": "T1 sequence (looked up)", "experiment": "Biacore-based binding assay (surface plasmon resonance), BMP9", "details": "37° C., capture by anti-Fc antibody; Transient*: indeterminate due to transient nature of interaction", "protocol": "(§1) To determine ligand binding profiles of variant ActRIIB-Fc homodimers, a Biacore™-based binding assay was used to compare ligand binding kinetics of certain variant ActRIIB-Fc polypeptides. ActRIIB-Fc polypeptides to be tested were independently captured onto the system using an anti-Fc antibody. Ligands were then injected and allowed to flow over the captured receptor protein. ActRIIB-G1Fc was used as the control polypeptide.\nas §1, with “protein.” for “protein. ActRIIB-G1Fc was used as the control polypeptide.”\n(§2) A Biacore™-based binding assay was used to compare the ligand binding kinetics of an ActRIIB-Fc:ActRIIB(L79E)-Fc heterodimer with those of unmodified ActRIIB-Fc homodimer. Fusion proteins were captured onto the system using an anti-Fc antibody. Ligands were then injected and allowed to flow over the captured receptor protein at 37° C. Results are summarized in the table below, in which ligand off-rates (kd) most indicative of effective ligand traps are denoted in bold."}, "[5]": {"biological_target": "T5, Activin A (Homo sapiens, UniProt P08476)", "T5 sequence (P08476 311-426)": "T3 sequence (looked up)", "experiment": "Biacore-based binding assay (surface plasmon resonance), activin A", "details": "37° C., capture by anti-Fc antibody", "protocol": "as §1\nas §1, with “protein.” for “protein. ActRIIB-G1Fc was used as the control polypeptide.”\nas §2"}, "[6]": {"biological_target": "T6, GDF11 (Homo sapiens, UniProt O95390)", "T6 sequence (O95390 299-407)": "T2 sequence (looked up)", "experiment": "Biacore-based binding assay (surface plasmon resonance), GDF11", "details": "37° C., capture by anti-Fc antibody", "protocol": "as §1\nas §1, with “protein.” for “protein. ActRIIB-G1Fc was used as the control polypeptide.”\nas §2"}, "[7]": {"biological_target": "T7, GDF8 (Homo sapiens, UniProt O14793)", "T7 sequence (O14793 267-375)": "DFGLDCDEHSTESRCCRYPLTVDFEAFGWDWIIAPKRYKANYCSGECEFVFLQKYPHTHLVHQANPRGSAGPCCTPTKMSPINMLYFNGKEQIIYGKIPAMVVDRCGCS", "experiment": "Biacore-based binding assay (surface plasmon resonance), GDF8", "details": "37° C., capture by anti-Fc antibody", "protocol": "as §1, §2"}, "[8]": {"biological_target": "T8, Activin B (Homo sapiens, UniProt P09529)", "T8 sequence (P09529 293-407)": "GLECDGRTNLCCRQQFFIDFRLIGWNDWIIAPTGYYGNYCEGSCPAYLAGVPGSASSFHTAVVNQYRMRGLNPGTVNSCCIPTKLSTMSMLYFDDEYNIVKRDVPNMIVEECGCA", "experiment": "Biacore-based binding assay (surface plasmon resonance), activin B", "details": "37° C., capture by anti-Fc antibody", "protocol": "as §1, §2"}, "[9]": {"biological_target": "T9, GDF3 (Homo sapiens, UniProt Q9NR23)", "T9 sequence (Q9NR23 251-364)": "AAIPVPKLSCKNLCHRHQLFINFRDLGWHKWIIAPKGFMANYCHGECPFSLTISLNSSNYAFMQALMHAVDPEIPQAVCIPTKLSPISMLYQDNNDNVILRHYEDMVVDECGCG", "experiment": "Biacore-based binding assay (surface plasmon resonance), GDF3", "details": "37° C., capture by anti-Fc antibody", "protocol": "as §2"}, "[10]": {"biological_target": "T10, BMP10 (Homo sapiens, UniProt O95393)", "T10 sequence (O95393 317-424)": "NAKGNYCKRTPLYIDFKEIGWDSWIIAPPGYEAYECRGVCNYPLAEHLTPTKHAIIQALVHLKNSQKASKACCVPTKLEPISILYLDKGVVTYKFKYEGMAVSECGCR", "experiment": "Biacore-based binding assay (surface plasmon resonance), BMP10", "details": "37° C., capture by anti-Fc antibody", "protocol": "as §1, §2"}, "[11]": {"biological_target": "T11, BMP6 (Homo sapiens, UniProt P22004)", "T11 sequence (P22004 375-513)": "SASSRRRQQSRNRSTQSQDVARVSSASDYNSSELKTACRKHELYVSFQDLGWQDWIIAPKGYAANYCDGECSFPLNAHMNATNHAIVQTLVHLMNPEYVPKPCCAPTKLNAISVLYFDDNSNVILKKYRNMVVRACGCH", "experiment": "Biacore-based binding assay (surface plasmon resonance), BMP6", "details": "37° C., capture by anti-Fc antibody", "protocol": "as §2"}}, "data": [{"substance": "A24N (homodimeric ActRIIB-Fc construct) (Fc fusion)", "values": [{"measurement": "IC50 (ng/ml), A204 CAGA12 luciferase reporter assay", "setting": "[1]", "result": 409, "unit": "ng/mL"}, {"measurement": "IC50 (ng/ml), A204 CAGA12 luciferase reporter assay", "setting": "[2]", "result": 99, "unit": "ng/mL"}, {"measurement": "IC50 (ng/ml), A204 CAGA12 luciferase reporter assay", "setting": "[3]", "result": 128, "unit": "ng/mL"}]}, {"substance": "ActRIIB-Fc homodimer: unmodified ActRIIB-Fc homodimer, comparator of the heterodimer in Table 6", "values": [{"measurement": "ka BMP9", "setting": "[4]", "result": "5e+06", "unit": "M⁻¹ s⁻¹"}, {"measurement": "kd BMP9", "setting": "[4]", "result": 0.0013, "unit": "s⁻¹"}, {"measurement": "ka Activin A", "setting": "[5]", "result": "7.4e+06", "unit": "M⁻¹ s⁻¹"}, {"measurement": "kd Activin A", "setting": "[5]", "result": 0.00019, "unit": "s⁻¹"}, {"measurement": "ka GDF11", "setting": "[6]", "result": "4.1e+07", "unit": "M⁻¹ s⁻¹"}, {"measurement": "kd GDF11", "setting": "[6]", "result": 0.00017, "unit": "s⁻¹"}, {"measurement": "ka GDF8", "setting": "[7]", "result": "3.8e+06", "unit": "M⁻¹ s⁻¹"}, {"measurement": "kd GDF8", "setting": "[7]", "result": 0.00026, "unit": "s⁻¹"}, {"measurement": "ka Activin B", "setting": "[8]", "result": "8.1e+06", "unit": "M⁻¹ s⁻¹"}, {"measurement": "kd Activin B", "setting": "[8]", "result": "6.6e-05", "unit": "s⁻¹"}, {"measurement": "ka GDF3", "setting": "[9]", "result": "1.4e+06", "unit": "M⁻¹ s⁻¹"}, {"measurement": "kd GDF3", "setting": "[9]", "result": 0.0022, "unit": "s⁻¹"}, {"measurement": "ka BMP10", "setting": "[10]", "result": "5.1e+07", "unit": "M⁻¹ s⁻¹"}, {"measurement": "kd BMP10", "setting": "[10]", "result": 0.0002, "unit": "s⁻¹"}, {"measurement": "ka BMP6", "setting": "[11]", "result": "1.3e+08", "unit": "M⁻¹ s⁻¹"}, {"measurement": "kd BMP6", "setting": "[11]", "result": 0.0074, "unit": "s⁻¹"}]}, {"substance": "E50K (homodimeric ActRIIB-Fc construct) (Fc fusion)", "values": [{"measurement": "IC50 (ng/ml), A204 CAGA12 luciferase reporter assay", "setting": "[1]", "result": 721, "unit": "ng/mL"}, {"measurement": "IC50 (ng/ml), A204 CAGA12 luciferase reporter assay", "setting": "[2]", "result": 180, "unit": "ng/mL"}, {"measurement": "IC50 (ng/ml), A204 CAGA12 luciferase reporter assay", "setting": "[3]", "result": 132, "unit": "ng/mL"}]}, {"substance": "E50P (homodimeric ActRIIB-Fc construct) (Fc fusion)", "values": [{"measurement": "IC50 (ng/ml), A204 CAGA12 luciferase reporter assay", "setting": "[1]", "result": 3000, "unit": "ng/mL"}, {"measurement": "IC50 (ng/ml), A204 CAGA12 luciferase reporter assay", "setting": "[2]", "result": 638, "unit": "ng/mL"}, {"measurement": "IC50 (ng/ml), A204 CAGA12 luciferase reporter assay", "setting": "[3]", "result": 756, "unit": "ng/mL"}]}, {"substance": "E52A (homodimeric ActRIIB-Fc construct) (Fc fusion)", "values": [{"measurement": "IC50 (ng/ml), A204 CAGA12 luciferase reporter assay", "setting": "[1]", "result": 359, "unit": "ng/mL"}, {"measurement": "IC50 (ng/ml), A204 CAGA12 luciferase reporter assay", "setting": "[2]", "result": 71, "unit": "ng/mL"}, {"measurement": "IC50 (ng/ml), A204 CAGA12 luciferase reporter assay", "setting": "[3]", "result": 198, "unit": "ng/mL"}]}, {"substance": "E52K (homodimeric ActRIIB-Fc construct) (Fc fusion)", "values": [{"measurement": "IC50 (ng/ml), A204 CAGA12 luciferase reporter assay", "setting": "[1]", "result": 10000, "unit": "ng/mL"}, {"measurement": "IC50 (ng/ml), A204 CAGA12 luciferase reporter assay", "setting": "[2]", "result": 296, "unit": "ng/mL"}, {"measurement": "IC50 (ng/ml), A204 CAGA12 luciferase reporter assay", "setting": "[3]", "result": 762, "unit": "ng/mL"}]}]}
